Test results from patent US20210155689A1 (SHANGHAI PHARMAEXPLORER, published 2021).
Numbering of substitutions follows the chain as printed.

T1: LAG-3-hFc protein (human LAG-3 extracellular region with hFc tag) (human, UniProt P18627 23-450)
T1 construct: also called hLAG-3-hFc; LAG-3 protein; not shown: human IgG Fc fragment (hFc) of the pCpC vector
T1 sequence: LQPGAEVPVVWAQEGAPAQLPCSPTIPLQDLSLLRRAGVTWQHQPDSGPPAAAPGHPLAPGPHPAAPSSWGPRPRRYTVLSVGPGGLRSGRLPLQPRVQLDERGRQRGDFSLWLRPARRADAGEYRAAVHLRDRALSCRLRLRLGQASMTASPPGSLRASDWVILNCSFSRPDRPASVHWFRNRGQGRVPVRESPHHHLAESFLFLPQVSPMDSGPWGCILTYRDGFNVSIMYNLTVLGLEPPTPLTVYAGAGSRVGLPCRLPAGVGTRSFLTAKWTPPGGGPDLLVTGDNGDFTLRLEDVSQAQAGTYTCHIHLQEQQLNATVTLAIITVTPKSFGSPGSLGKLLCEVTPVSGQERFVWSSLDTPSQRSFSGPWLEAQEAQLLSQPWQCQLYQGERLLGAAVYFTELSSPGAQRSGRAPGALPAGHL

B1: 405B8H3 mouse-human chimeric antibody (antibody, V domains shown)
VH: QVQLQQSGAELVRPGASVTLSCKASGYTFTDYEMHWVKQTPVHGLEWIGATDPETGNSAYNQKFKGKAIMTADKSSSTAYMELRSLTSEDSAVYYCISTGWNDWGQGTSLTVSS
VL: DIKMTQSPSSMYASLGERVTITCKASQDINSYLSWFQQKPGKSPKTLIYRADRLLDGVPSRFSGSGSGQDYSLTISSLEYGDMGIYYCLQYDEFPYTFGGGTKLEIK
notes: also called mAb103-405B8H3
B2: 409D4E10 mouse-human chimeric antibody (antibody, V domains shown)
VH: B1 VH with Y27N, G56D, S58T, M70L, A72T, S98T, T99S
VL: B1 VL with D52N, G81E, D92N
notes: also called mAb112-409D4E10
B3: 409B11E12 mouse-human chimeric antibody (antibody, V domains shown)
VH: B1 VH with P41T, G56S, N57Y, M70L, S98A
VL: B1 VL with I2L, D52N, G81E
notes: also called mAb104-409B11E12

Biological target: T1, LAG-3-hFc protein (human LAG-3 …)
Experiment: FACS, inhibition of LAG-3-hFc binding to MHC II on Raji cells, antibody 0.000 nM
Description: The FACS reaction plate incubating the Raji cells was centrifuged to discard the supernatant. The above mixture was added as 100 μl per well to Raji cells and incubated on ice for 1-2 hours. The plate was washed twice with blocking solution (PBS, 2% fetal bovine serum) by centrifugation, added with 100 microliters of fluorescent (Alexa 488)-labeled secondary antibodies per well, and incubated on ice for 1.0 hours. The plate was washed 2-3 times by centrifugation with blocking solution (PBS, 2% fetal bovine serum), added with 100 microliters of PBS per well to suspend cells, and detected using FACS (FACS Calibur, BD) and the results were analyzed. Wherein, the IgG control was murine IgG, and the data in the table is the inhibition rate (%).

Row | Binder | Inhibition rate (%)
1 | B1 | -15.6
2 | B2 | -1.7
3 | B3 | -11.8
